Data taken from the supplement of paper PMC12636428.

system: Saccharomyces cerevisiae; test: transcriptional activation domain activity (GFP:mCherry ratio, weighted mean of sorted bins, harmonized to initial dataset scale) (arbitrary fluorescence ratio units); higher = stronger transcriptional activation; settings: beta-estradiol 1 µM; induction time 4 h
How it was run: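 Values are activation activity, found as the read-weighted mean of bin median fluorescence, averaged across barcodes and then mapped linearly onto the initial dataset scale. Barcoded protein tiles fused to an estradiol-inducible synthetic transcription factor were integrated at the URA3 locus of GFP-reporter yeast diploids. Cells were induced for 4 hours at 30 °C with 1 uM beta-estradiol in SC, sorted into 8 bins by GFP:mCherry ratio, and barcode-sequenced, with tiles under 50 reads discarded.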

Sequence	transcriptional activation domain activity
SKSESTHSSAKKADSGKRSGRSKPATSDGGPKGFDSKPSGEKSKKESSRSTKE	36600
PVVAPKQPRRRAVAGERYERLAQVGEGTYGKVYKARNTGSGALVALKRIRMEQ	68200
PGVRGNTESIFLLICNLPYLEHPDKVARTVYKIIWGEHHRNLLRLTYWLHRCP	68200
KPKVKKDADDDAMDVDEEEKPKPKPKPRPKPKATSSPKEGEEDEPAKKKLKTS	51400
VNGGGESDEDVKSKKDSKRKGKAIKGEDEEEEEEKPKANSKRGRKKVEENGAV	44700
HIFYTQLYPAYDLPKKLQEDTELETEQENQMLNQVGNINYTHDFSLSHEIDDL	57800
MPRLCLWLTCIYGVMYCMEFSLLVYALHSLANEYYPASYGDNLGCVTVNLHYY	44400
SSSSEPIVLPVPVPVKRGRGRPKGAKNKPKLCEEKKQEEEEERERERERERGT	12200
SLPLPDTLPFPLPDSLHLPLTDDFSLTLQDALPFLYMDSLPFPLPMPFLFYFW	69600
MLFIPFCVLFFVWLWGLINYGAFVDPCFLSFYVLLSTLLQLPSSSFLSFFALF	54400
KVVQQFCGCHSRAANGCSGDELLRQYDYDEEDTVSSNRRFANETCRVAVLTVR	65900
FDAALQHCRHGIMILNNSSRPEWMCQYLVPIFRRLSITPFFFGGVRPTRLPQL	68800
AEAQEGRKKDAAAAAEKKEEESPKKEEESAAGEEKQAAPKKKPKKLERRGGAA	41300
FYFSWIAQEKYTDAFLLKPLGHYLGTRQLNQENIFIAYYIFVLACHYTFLYVS	33300
NGHGTHCSGTVAGKKYGVAKKANVYAVKVLRSNGSGTMSDVVKGVEEAVKMHN	37500
MISIAGFYLFFLGYWRFWMLFINLIVGLLATIGHHVSGLACLIFFCGSSVRIS	35300
ATGAGSDANAGEDETFHKSGEATLSSQHRYKDAIDFRKIVLKLTDGVRWGLGI	37200
TIPGLIRTSPRFGIMLLCLLLSIIFLFTDVIFMIVVSRRGGMNPFWRLALVFK	52600
PVKAIEAPLAEEKSEEKEAEPEKAEEAEEEVTEKPAAKKAKGGKKGAKGKKVK	46800
EKKAPGRRGRPPKAAAAKKAKEAAAPGEEGAKPKRPVGRPRKGTTETAEKKGA	22300
ARGGEKKRREPGRGKRRTGGEERGGRRKTRRANAGETGGERRPRGATPGRKPA	38500

Sequence	transcriptional activation domain activity
VWVASKVEEDEASDYAAPEKQAKPKRQRGRPKKGGEDKSDVTSTAAAQESAAK	24500
NMSPNNDDNSIDTASTNTTNRKKNIDENIKNNNDIINDIIFNTNLANNLSNYN	51000
LYNTLFLQLSAIAREFNFPSAAGLCCYMNFSDNGSIFAPRITDDAWIILWRRY	71800
HGAPPPPPPPPPPPPPVAGGPPPPPPPPPPGGAPPPPPPPPPPGGGGSAPLPA	44500
EAATKVDAAADGTDEVADRIADLDVSTSSNSKKKKKNSKSKKKAAKEEPVRLR	47300
KFCAITLAGTWGKVVLYSLAMTRVVSYCYNIYYMDSVFSRTIRPGIGICFTSL	67100
LLIPTISFFFCATNCYVLTKDSQLDRGYIYWVLRCSAVHLMLSFFTLLFSLCF	48100
REYHGDTAEIKYGHKVVEIGEDKERGKARVRVEKDGEGGVKEEEVHEADYVVG	22600
VATADVCMVTHFLILLLLAAITGAVLVSVFAFLCVICPPHLRRRPVFMLNLLA	35400
ERAVVGLLRICLILATRPSLRDQIFVSFDLLAGLPPAIANAVAEQVVAGLILV	35700
VGLVGMSLSILGKDHLVWNALAACRTEISEVFERMLRALYHWMIDVAHQYCGK	56300
TLDTVMRDTANMDWVRFLPLSLLFTSFIFSPLSFSLFRMYVHALLFFCFTFTP	49600
ADCAVIGVNSEEEATELPRAYVVHAKGIPPSEQAAFGVSVQEWVKSRVARHKQ	80600
TYINYLITSNAGLTATIVHMLLWNYAEVSLGWSWITIANMKKLLRPETYKFWQ	33300
RAAVTLCSFFCFFFSWTYSSLFLLSFFIWTGFGRSYGVFFFFFFFFFFFFGGF	19400
GELLYIILSIVDVDLICRFTIIHPIPTFDNLTALNMVIDRMQEVGLYLVYDMR	52300
VWVKTPWNLYALLLATLSHSLMIDPLLGVLLYYSSITWDPLYRILIFCIFAFW	45400
QVTALVRLIVRLNCELDLNLRGFVAALCIHWIKQSAGSASLKVLLYHAVFLAD	44900
ALVTVLLLLMGYLPHLNTVTLTVRTFRNRLSHHDFSQHELAIFLDLLPRRCPN	98800
AGRGGERRRRGLRRGRGRGAGAAARGRDGVRDDGERVAARVRVRVCARVCVCV	42600
TDVYYALRPGYQDDEVWDLLPLPTFPQLHMLTLNMLHISFQFPNWWTLWFKWI	68900

Sequence	transcriptional activation domain activity
ARNGSSSGDILFSNGAHDMINNISTWTNNSVLDALNSKSILQTIFPQSQEPSS	58200
MFAKILVLSWFDSIRWGLFLLLCVMGVFLLFDIPFSFSLLVFSAWYFLFFSRR	33800
SMNYISITAPIYDRGPDSTCLLGSTVCSYFDYDTWTLSLTLWVLIQLTWSMFL	60800
YIAPCGSWTPYMNLMLGGTVCIFIGFDVFSPFSYRGFITNYFGLFWFCIMFIF	53600
FPEMITILIFTWSHNPLPHLVWHNQQECGSSLSTRFLCIFAVILCIWFVKRVF	59700
IIKLLVFTLWVLDSMHLILCTIAIYWYLIRNFNNTTNLQLNHWSMNLQTDCNG	43600
TAPFPILEDQCPALNLDRSNNDLLLQNNISFPKGSDLQAIQLTPISGDYSTYV	92600
HLIVSLSLSIFLFYLFWCLSIHVCVCLVSIYYILLLASLCFFLFFFNYLPILL	50300
RSRRAHPRTTSSRASPSCARSSRAPPRATSSSASTTSSTGTRSRTTTPSTSPR	18000
SLADEKERGLLTGDDNRDEYLGRNLRGMIHEFRWQTLVLLKCCLLQPKMLFFS	58100
MYHIPWPQVLWVGYQLRPTQIMGIFCSHLSVVLLVLPTPYYFLFHVLFLLWAS	48900
MFMGTLWLVIFHYGWAFFLDYCVWYFMISLCFWCEVCLPVLLPAFHVCCLLWC	52400
MFGKRFIYCLSIIDYGISPHEGITGFILCVCVVYFLECGFCYCWHSRRTSMSW	64400
AKAEAEIKTEAEVKAEAEAPADEEAQTAGGKKKKAKNKKKKKAAAAAAAAAEA	36300
VEANTSANLHFDNVIPTVTNADIRKKRSNWDNMMTSGPVEDFWTINDDYGFLT	141000
SHRKGIERKKRLREEERRREAKENGIVLEREKRADKGKERGRRDRGVDAPGVG	26800
KHERDDEKERKHRKHDKPSKDKDGEDDDGEGRRHKKHRKHKERGSDDEDEHRK	22500
KSKKKRRMEEEEEGDEEEEEEQREREEERGERGEREARVRREGKAKKSASSRD	17300
KAAVPKTKAAPKAKAVKAPKEKKAAAPKAKAAAKPKAAPKAKKAAAPKAAPAV	29000
PPWVDDCNPFLTDVYYLGSLLKRTFFVVYELTYKDFLFLLTLPVHRTPFLLCN	50900
MTYLPFINFSLDIFVIVIVIVIYFPFFVTNFFNWFFSPFWCYLINYLFNLNLF	52400

Sequence	transcriptional activation domain activity
EDEEDAVNGTALSEEDAAERDAKLKRLREEAERKALARRSQAVQRGLPRPANV	14900
SCMVYSIHNTTILILSFSPSPLNFFFFSSWLLFIFFFFLFLFLFLFLFLFLFL	39900
PKPAPAAAAAPAPAAAPPAAAPAPEPKKYAPPPARPAPAPAAAPVAAAAAAAP	9320
EGKKREEEEGRRKEGGTEEDREREPKRGDRRSRGKAGQSPEARERGTGGQGRR	37200
VRWIRVRKHIVMAATLAEPFTESIVLVVIGSSSLKYLVGLPRWLCILVHFFLL	35900
FRPAPPPCSPAPPSPSSSPSSSSPPPPPPSRARRWSSAARARNAATTPCASSG	37900
EGDSDEEGDEDMYQQVDMNDVMDGVLEGMDNMGEERLNRGRARLKIHTGGPGK	37300
SEDERPRGGLKGRKGKKRVEREETSGGSDESSDEEGKRGKAKAGGKREVRTRS	31900
SVLHTMYVVAIKDSSAWYGDSPADLCMIGFWNLVIVWLKLLIPWRFFRLWAIL	55900
EDDEELVEEVAKKGKGKGKGKAGKAAAAIGAAEGGKGRRGRKPKAKGAEEQGE	60600
MYIPPQSSVFLDIDSWGLIPVTCHLWLVMRWMYEAVMLPYLSQDGRHIVKFRY	40700
TPANSSSTMALVPKEEQKEEEEKSTPADSGSTTASVPKEEEKEEEKSTPADSG	44400
CLLLAICCLYHVAFCIIVVLFWVAQVNAAPMEALQMVLAHVRYTFILSVSMVG	63500
ILLTCLLQICCRFVQEKQTRCLQILLHYIGSQASMHAGARPLELLCRSLLEAM	40900
VKFRFLTYSRWLVLILYVFSWSFTIISMLLVTTNNANFTSCFLSIMVCDIFYS	71700
KSEKPEKERKHRDKGEREHRDRSEREHKVREPKEPREKGEKEKRHKTAEEKAG	16900
FMHLSRPEKLLVLKVFADLVDYARKSIDSCLSSPTVNWSFNNLLWNYCSMLLQ	67000
RKPESNEKTEGANGEGHDGTRRRQSTRGRGRAGRGRGGRARGERGEKKEEGAE	14100
MSHLLSSFLYDSLSFCFILLFGFDVILFPLFKYLWTTSSFYMFWMPDHLTLAV	73900
EAEDAPAAAVSIEEDAPVKEVEAPAPEPEVLEPEKPKEPSPTPVAAATKPAAP	49100
